The supplement of paper PMC10724198
± gives the standard deviation of the averaged measurements.

Test system: Saccharomyces cerevisiae
Experiment: protein stability index of tFT-peptide fusion (C-terminal peptide) (PSI (0-1 scale)); higher = more stable (slower turnover)
Conditions: temperature: 30 C
Protocol: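 MPS profiling in S. cerevisiae of the yeast C-terminome library: the last 12 aa of each annotated ORF are fused to the C-terminus of a sfGFP-mCherry timer, after a GGGS linker. Cells are FACS-sorted into 8 mCherry/sfGFP bins and deep-sequenced. PSI runs from 0 (unstable) to 1 (stable); wild type and das1Δ backgrounds, two technical replicates each.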

[1] = genetic background: das1 deletion

Row | Sequence | protein stability index [1] | protein stability index (genetic background: wild type)
1 | NDQNKNKQNAKR [YIL156W-A C-terminal 12 aa] | 0.7078 ± 0.0055 | 0.639 ± 0.011
2 | AVSVPRISSPMH [ICS3 C-terminal 12 aa] | 0.7029 ± 0.0038 | 0.73 ± 0.028
3 | ESSKDVKRNNKD [SDH7 C-terminal 12 aa] | 0.691 ± 0.012 | 0.702 ± 0.03
4 | PKYKEEESRSAV [RSN1 C-terminal 12 aa] | 0.678 ± 0.035 | 0.668 ± 0.019
5 | ALAFSKIPSVFL [YMR153C-A C-terminal 12 aa] | 0.722 ± 0.035 | 0.687 ± 0.0091
6 | THKQYFWKKPAK [TOS4 C-terminal 12 aa] | 0.707 ± 0.03 | 0.688 ± 0.058
7 | ERINFVCETYGL [AIM14 C-terminal 12 aa] | 0.7 ± 0.018 | 0.7 ± 0.027
8 | VFTPFLFGELIG [ERG1 C-terminal 12 aa] | 0.718 ± 0.0073 | 0.712 ± 0.035
9 | AMSARKLSAARK [PCH2 C-terminal 12 aa] | 0.677 ± 0.015 | 0.666 ± 0.025
10 | EWSSGIPHPEMI [ARA2 C-terminal 12 aa] | 0.7305 ± 0.0044 | 0.667 ± 0.018
11 | STTMNFNYQTKV [SDD1 C-terminal 12 aa] | 0.696 ± 0.011 | 0.363 ± 0.0082
12 | GFQTGSAKATSA [RPL37B C-terminal 12 aa] | 0.703 ± 0.02 | 0.697 ± 0.019
13 | KVYDELKKQGLV [PRP9 C-terminal 12 aa] | 0.693 ± 0.017 | 0.676 ± 0.0062
14 | SASSTPSSTTMS [SPT20 C-terminal 12 aa] | 0.682 ± 0.0019 | 0.681 ± 0.011
15 | SGFFSSLKTMFN [PAR32 C-terminal 12 aa] | 0.719 ± 0.027 | 0.726 ± 0.058
16 | CSGMKPISELQQ [RSM28 C-terminal 12 aa] | 0.695 ± 0.015 | 0.682 ± 0.017
17 | GWFEEVRDHKRH [SKY1 C-terminal 12 aa] | 0.731 ± 0.017 | 0.753 ± 0.022
18 | SYEIVKNGHKNS [APC2 C-terminal 12 aa] | 0.6772 ± 0.0007 | 0.687 ± 0.018
19 | EMKHSLFRNPFH [PIG2 C-terminal 12 aa] | 0.705 ± 0.014 | 0.678 ± 0.015
20 | SFFCRSSSKSSK [YSC83 C-terminal 12 aa] | 0.7232 ± 0.0053 | 0.724 ± 0.0074
21 | KHKNILSFNNNT [YDR543C C-terminal 12 aa] | 0.687 ± 0.02 | 0.709 ± 0.041

Row | Sequence | protein stability index [1] | protein stability index (genetic background: wild type)
22 | KKSKPRANKLTI [ECM2 C-terminal 12 aa] | 0.713 ± 0.02 | 0.696 ± 0.017
23 | KKNGYIYFYTRC [UBP14 C-terminal 12 aa] | 0.69 ± 0.0087 | 0.6625 ± 0.0026
24 | SIDELETEISTW [BCP1 C-terminal 12 aa] | 0.718 ± 0.015 | 0.6932 ± 0.0068
25 | KRYTVKKALAKA [RPL14A C-terminal 12 aa] | 0.6258 ± 0.0061 | 0.627 ± 0.013
26 | CPLCRSEIPFRR [RKR1 C-terminal 12 aa] | 0.75 ± 0.028 | 0.724 ± 0.039
27 | NEKRNEPKPSTN [YTA12 C-terminal 12 aa] | 0.6938 ± 0.0025 | 0.656 ± 0.017
28 | RVGQTNSPSDSQ [DFM1 C-terminal 12 aa] | 0.706 ± 0.0087 | 0.695 ± 0.049
29 | GYYQRRNKRKRA [UTP20 C-terminal 12 aa] | 0.749 ± 0.012 | 0.69 ± 0.046
30 | RKEDDKRDTQEK [SOF1 C-terminal 12 aa] | 0.713 ± 0.024 | 0.67 ± 0.019
31 | AQAEVIRGLQSL [CAP2 C-terminal 12 aa] | 0.682 ± 0.023 | 0.672 ± 0.03
32 | SHYHMWPIKRII [YMR082C C-terminal 12 aa] | 0.6853 ± 0.0064 | 0.567 ± 0.011
33 | EKAERRKLSQGR [QRI5 C-terminal 12 aa] | 0.686 ± 0.02 | 0.6807 ± 0.002
34 | FDLIKLALQRKK [AGX1 C-terminal 12 aa] | 0.7118 ± 0.0048 | 0.68 ± 0.04
35 | KPRWYRIWNFWC [GAP1 C-terminal 12 aa] | 0.803 ± 0.017 | 0.419 ± 0.024
36 | YIDDIDQTIPKY [UBA4 C-terminal 12 aa] | 0.7441 ± 0.0062 | 0.686 ± 0.0073
37 | EEGPFKADHYRY [SAH1 C-terminal 12 aa] | 0.701 ± 0.011 | 0.694 ± 0.033
38 | RQDNNHNGSSNG [MET32 C-terminal 12 aa] | 0.6936 ± 0.0016 | 0.706 ± 0.025
39 | KGCYKLCKNLLE [KEI1 C-terminal 12 aa] | 0.686 ± 0.013 | 0.696 ± 0.043
40 | GVFEADGLEAVH [YLR235C C-terminal 12 aa] | 0.717 ± 0.029 | 0.7688 ± 0.0057
41 | DGEFVVSDLRLR [YOR283W C-terminal 12 aa] | 0.708 ± 0.0071 | 0.682 ± 0.015
42 | WNCFLSMRNASK [YOR292C C-terminal 12 aa] | 0.693 ± 0.012 | 0.72 ± 0.028

Row | Sequence | protein stability index [1] | protein stability index (genetic background: wild type)
43 | ATAKEWTKKYAV [UBC5 C-terminal 12 aa] | 0.7 ± 0.018 | 0.729 ± 0.045
44 | LRRFIICQLHLI [YBR027C C-terminal 12 aa] | 0.523 ± 0.02 | 0.139 ± 0.0035
45 | LSRVGELYLSTD [SEC7 C-terminal 12 aa] | 0.683 ± 0.02 | 0.692 ± 0.038
46 | TPLPGLSWPFNE [YIL014C-A C-terminal 12 aa] | 0.74 ± 0.021 | 0.74 ± 0.061
47 | NRRNNGYHPYNR [HRP1 C-terminal 12 aa] | 0.688 ± 0.019 | 0.6645 ± 0.0011
48 | VHKDLDIKTVTL [PRO2 C-terminal 12 aa] | 0.691 ± 0.013 | 0.671 ± 0.0073
49 | GRGAISYSDITI [PEP5 C-terminal 12 aa] | 0.707 ± 0.018 | 0.69 ± 0.0077
50 | QQQQQQQQQQQQ [PUB1 C-terminal 12 aa] | 0.71 ± 0.029 | 0.672 ± 0.052
51 | ERNPSQRPQRRY [RPS10B C-terminal 12 aa] | 0.686 ± 0.0083 | 0.679 ± 0.066
52 | NVLTVVNPDEAD [SLG1 C-terminal 12 aa] | 0.692 ± 0.027 | 0.6841 ± 0.0015
53 | GKRIIGMLHLDS [PUF4 C-terminal 12 aa] | 0.685 ± 0.037 | 0.699 ± 0.01
54 | KKLHEEYFGEDK [CRS1 C-terminal 12 aa] | 0.673 ± 0.031 | 0.646 ± 0.032
55 | RLYDRINGKPHD [MRP10 C-terminal 12 aa] | 0.671 ± 0.014 | 0.668 ± 0.021
56 | AQFKEYLYQNDF [HAM1 C-terminal 12 aa] | 0.704 ± 0.01 | 0.697 ± 0.022
57 | FLPINVNDVPST [RGD3 C-terminal 12 aa] | 0.716 ± 0.0089 | 0.708 ± 0.069
58 | CLFGMAWLSTIL [YIP4 C-terminal 12 aa] | 0.661 ± 0.015 | 0.623 ± 0.0079
59 | FCTVAKIIQCFL [YDR396W C-terminal 12 aa] | 0.5838 ± 0.0053 | 0.4942 ± 0.0047
60 | GWPLKDGNKKRK [OTO1 C-terminal 12 aa] | 0.682 ± 0.025 | 0.706 ± 0.065
61 | IGELLEGIRMSI [BIT2 C-terminal 12 aa] | 0.694 ± 0.012 | 0.729 ± 0.091
62 | ANLVYMKADVFC [HTD2 C-terminal 12 aa] | 0.581 ± 0.012 | 0.61 ± 0.066
63 | LKLNHSFATIFK [MCM21 C-terminal 12 aa] | 0.684 ± 0.018 | 0.677 ± 0.024

Row | Sequence | protein stability index [1] | protein stability index (genetic background: wild type)
64 | PDDQIHSILLSL [MET13 C-terminal 12 aa] | 0.708 ± 0.019 | 0.714 ± 0.018
65 | MERELIKEEYDN [PAA1 C-terminal 12 aa] | 0.702 ± 0.025 | 0.67 ± 0.031
66 | IAQNVSRSSQQV [YMD8 C-terminal 12 aa] | 0.6875 ± 0.00089 | 0.731 ± 0.016
67 | LMGAALAAVIFL [FIT1 C-terminal 12 aa] | 0.672 ± 0.018 | 0.668 ± 0.026
68 | AKAGSTPKFRTE [YNL050C C-terminal 12 aa] | 0.6897 ± 0.0035 | 0.6555 ± 0.0053
69 | APRKEILACSDL [YOR392W C-terminal 12 aa] | 0.718 ± 0.029 | 0.665 ± 0.04
70 | PLTNNIRPISIM [YJR115W C-terminal 12 aa] | 0.6893 ± 0.0007 | 0.6548 ± 0.005
71 | AAISFKEAPRSD [ANB1 C-terminal 12 aa] | 0.723 ± 0.037 | 0.694 ± 0.036
72 | LRASGDDSDPAY [PFA5 C-terminal 12 aa] | 0.7076 ± 0.0054 | 0.687 ± 0.014
73 | TEPESDTEVETS [WHI5 C-terminal 12 aa] | 0.676 ± 0.01 | 0.662 ± 0.013
74 | EKANDIGFHKYR [RPS29B C-terminal 12 aa] | 0.6797 ± 0.0058 | 0.648 ± 0.027
75 | FKQKYDADVLDK [RPL11A C-terminal 12 aa] | 0.6902 ± 0.0043 | 0.735 ± 0.047
76 | GRLFEGMPGTET [ITT1 C-terminal 12 aa] | 0.709 ± 0.0093 | 0.71 ± 0.03
77 | IYIQTPINDFKS [SLM1 C-terminal 12 aa] | 0.705 ± 0.031 | 0.678 ± 0.013
78 | LGMINTVVSLDR [YBR221W-A C-terminal 12 aa] | 0.691 ± 0.022 | 0.672 ± 0.04
79 | RQFKEILTVKEE [RRP40 C-terminal 12 aa] | 0.6732 ± 0.0037 | 0.687 ± 0.013
80 | YLRRFFEVTSLV [EMP24 C-terminal 12 aa] | 0.552 ± 0.011 | 0.338 ± 0.03
81 | RKFVFNPPKPRK [CYT1 C-terminal 12 aa] | 0.691 ± 0.025 | 0.694 ± 0.056
82 | VEIFVDKLIDFL [THI80 C-terminal 12 aa] | 0.674 ± 0.014 | 0.656 ± 0.027
